Results from patent US20250313612A1 (Adimab, published 2025).

Key:
[1] = target: T1, RSV F ectodomain stabilized in the postfusion conformation (F ΔFP), subtype B (Respiratory syncytial virus subtype B, UniProt P13843 26-109; P13843 147-524); test: BLI, IgG on AHQ sensor, 100 nM antigen
T1 construct: extracellular domain; trimer; also called Postfusion subtype B; postF subtype B

[2] = target: T2, RSV F ectodomain stabilized in the postfusion conformation (F ΔFP), subtype A (Respiratory syncytial virus subtype A, UniProt P03420 26-109; P03420 147-524); test: BLI, IgG on AHQ sensor, 100 nM antigen
T2 construct: extracellular domain; trimer; furin-cleaved; also called Postfusion subtype A

[3] = target: RSV F protein of recombinant mKate-RSV, subtype B (18537) (Respiratory syncytial virus subtype B …, UniProt P13843 26-574); test: cell-based or functional assay
[4] = target: RSV F protein of recombinant mKate-RSV, subtype A (strain A2) (Respiratory syncytial virus subtype A …, UniProt P03420 26-574); test: cell-based or functional assay

Binder | Kd [1] | Kd [2] | Neut IC50 subtype B [3] | Neut IC50 subtype A [4]
ADI-14450 (antibody, V domains shown, full-length IgG (yeast-expressed); also called Antibody Number 13; Ab# 13) VH: QVQLVQSGGGLVKPGGSRRLACAASGFIFRNAWMSWVRQAPGKGLEWVGRIKRTSEGGSVDYATPVQGRFSISRDDSRNTLYLQMHSLAPDDTAVYYCSTGPPYSYFDSTGYSVVDYWGQGTLVTVSS VL: QSVLTQPPSASGTPGQRVTISCSASSSNIGDNYFYWYQQLPGKAPTLLMYGSDQRSSGVPDRFSGSQSGTSASLAISGLRSEDEAAYYCAAWDDSLSGPVFGGGTQLTVL | 0.142 nM | 0.227 nM | 0.315 mg/L | 0.195 mg/L
ADI-14523 (antibody, V domains shown, full-length IgG (yeast-expressed); also called Antibody Number 83; Ab# 83) VH: EVQLVESGGGLVKPGGSLRLSCAASGFIFRNAWMSWVRQAPGKGLEWVGRIKRTSEGGSVDYATPVQGRFSISRDDSRNTLYLQMNSLETDDTAVYYCSTGPPYSYFDSSGYSVVDYWGQGTLVTVSS VL: QSVLTQPPSASGTPGQRVTISCSASSSNIGDNYFYWYQQLPGKAPTLLMYGSDQRSSGVPDRFSGSQSGTSASLAISGLRSEDEADYYCAAWDDSLSGPVFGGGTKLTVL | 0.131 nM | 0.192 nM | 0.151 mg/L | 0.239 mg/L
ADI-14504 (antibody, V domains shown, full-length IgG (yeast-expressed); also called Antibody Number 65; Ab# 65) VH: EVQLVESGGGLVQPGGSLRLSCAASGFPFSRYNMNWVRQAPGKGLEWVSYISSGSRSIYYADSVKGRFTISRDNAKNSLYLQMNSLRAEDTAVYYCARDLSGSPAYSGSWVWGQGTLVTVSS VL: not shown | 0.52 nM | 0.583 nM | 13.4 mg/L | 2.81 mg/L
ADI-14471 (antibody, V domains shown, full-length IgG (yeast-expressed); also called Antibody Number 34; Ab# 34) VH: QVQLVQSGAEVKKPGSSVKVSCKASGGTFGSYAVIWVRQAPGQGLEWMGHIIPVFGTINNAQKFQGRLTLSADESTGTVYMGLSSLRSDDTAVYFCATKRYCSDPSCHGLWYFDLWGRGTLVTVSS VL: DIRLTQSPLSLPVTPGEPASISCRSSQSLLDSDDGNTYLDWYLQKPGQSPQVLIYMLSYRASGVPDRFSGSGSGTDFTLKISRVEAEDVGVYYCMQRAEFPYTFGQGTKLEIK | 0.15 nM | 0.212 nM | 0.116 mg/L | 0.096 mg/L
ADI-14446 (antibody, V domains shown, full-length IgG (yeast-expressed); also called Antibody Number 9; Ab# 9) VH: QVQLVQSGAEVKKPGSSVKVSCEASGDTFTSYAVIWVRQTPGQGLEFMGSIIPIFQTINYAPKFQGRVTLSADGSTSTVFMELRNLRSEDTAIYFCATKRYCTSPSCHGLWYFNLWGRGTMVTVSS VL: ETTLTQSPISLSVTPGEPASISCRSSKSLLDSDDGNTYLDWYLQKPGQSPQILIYMLSYRASGVPDRFSGSGSGTDFTLKISRVEAEDVGVYYCMQRIEYPYTFGQGTKVEIK | 0.137 nM | 0.213 nM | 0.187 mg/L | 0.091 mg/L
ADI-14524 (antibody, V domains shown, full-length IgG (yeast-expressed); also called Antibody Number 84; Ab# 84) VH: EVQLVESGGGLVQPGGSLRLSCAASGFSFSDYSMNWVRQAPGKGLEWVSYITPSSRNKFYADSVRGRFTISRDNAENSLYLQMNSLRVEDTAVYYCVRSLHWGAAIERWDVWGQGTTVTVSS VL: EIVLTQSPGTLSLSPGERATLSCRASQSISSSFFAWYQQTPGQAPRLLMYATSSRATGIPDRFSGSGSGTDFTLTISRVEPEDFAVYYCQQSGSSPYTFGQGTKVEIK | 0.771 nM | 0.826 nM | 6 mg/L | 6.05 mg/L
ADI-14507 (antibody, V domains shown, full-length IgG (yeast-expressed); also called Antibody Number 68; Ab# 68) VH: QITLKESGPTLVKPTQTLTLTCTLSGFSLSTPRMGVGWIRQPPGKALEWLALIDWDDDRRYSPSLKTRLTITKDTSKNQVVLRMTDMDPVDTGTYYCVHSDVYTTGGYYLYYFDYWGQGTLVTVSS VL: DIQVTQSPSSLSASVGDRVTITCRASQTIPSYLNWYQHKPGKAPQLLIYAASNLRSGVPPRFRGSGSGTDFTLTVSSLQPEDFATYFCQQSYSSPYTFGQGTKLEIK | 0.413 nM | 0.266 nM | 0.173 mg/L | 0.319 mg/L
ADI-14499 (antibody, V domains shown, full-length IgG (yeast-expressed); also called Antibody Number 60; Ab# 60) VH: QVQLVQSGPALVKPTQTLTLTCTFSGFSLTTRGVGVGWIRQTPGKALECLGFIYWDDDMNYNPSLRGRVTITRDTSKNQVVLTMTNMAPVDTGTYYCVHSDLYDSSGYYLYYFDYWGQGTLVTVSS VL: DIRLTQSPSSLSASVGDRVTITCRASQPIASYLNWYQQKPGKAPKLLIYAASNLQSGVPSTFSGRGSGTDFSLTISTLQPEDIATYYCQQSYTSPYTFGQGTKVEIK | 2.99 nM | 0.415 nM | > 10 mg/L | > 10 mg/L
ADI-14510 (antibody, V domains shown, full-length IgG (yeast-expressed); also called Antibody Number 71; Ab# 71) VH: QVQLQQWGAEVKKPGSSVKVSCKASGVALSSVAISWVRQAPGQGLEWMGGILPGFDKVRFAQEFENRATLTADTARDIAYMELSGLRSDDTAVYYCAIIDPQDCTSASCFWVNWLDPWGQGTLVTVSS VL: ETTLTQSPGTLTVSPGERATLSCRASQSIIRNNLAWYQQKPGQAPRLLIYAASNRATDIPDRFSGSGSGTDFTLTISRLEAQDFAVYFCQQYGTSPITFGQGTKVEIK | 0.619 nM | 0.783 nM | > 10 mg/L | > 10 mg/L
ADI-14500 (antibody, V domains shown, full-length IgG (yeast-expressed); also called Antibody Number 61; Ab# 61) VH: EVQLLESGGGLVKPGGSLRLSCAASGFIFNNAWMTWVRQAPGRGLEWVGRIKTNADGGTADYSTPVKGRFAISRDDSTNTLYLQMNSLKTEDTAVYYCTTGPPYKYSDSTGYSVVDYWGQGTLVTVSS VL: SYELTQPPSASGTPGQRVTISCSGSSSNIGSNYVYWYQQLPGTAPKLLIYSTNQRPSGVPDRFSGSQSGTSASLAISGLRSEDEADYYCAAWDDRLSGPVFGGGTQLTVL | 0.127 nM | 0.714 nM | 0.552 mg/L | 0.415 mg/L
ADI-14498 (antibody, V domains shown, full-length IgG (yeast-expressed); also called Antibody Number 59; Ab# 59) VH: EVQLVESGPTLVKPTQTLTLTCTFSGFSLTTRGMGVGWIRQPPGRSLEWLAVIYWDGDVRYSPSLKGRLTITKDTPKNQVVLTMTNMDPVDTATYYCVHSDLYDRNAYYLHYFDFWGQGTLVTVSS VL: DIRLTQSPSSLSASVGDRVTITCRASQIIASYLNWYQQKPGKAPNLLIFAASSLQSGVPSRFRGSGSGTDFTLTISSLQPEDFATYYCQQSYSIPYTFGQGTKLEIK | 2.27 nM | 0.412 nM | > 10 mg/L | > 10 mg/L
ADI-14513 (antibody, V domains shown, full-length IgG (yeast-expressed); also called Antibody Number 74; Ab# 74) VH: QVQLVQSGSEVKRPGSSVKVSCKASGVALTTVAVNWVRQVPGQGPEWIGGILIGFGKVRQAQKFENRVTFTADASRNTAYMELSGLRSEDTAVYYCAIIDPQDCTRASCFWVNWLAPWGHGTLVTVSS VL: DIRVTQSPGTLTLSPGERASLSCRASESILNGNLAWYQQKPGQAPRLLIYAASSRATDIPDRFSGSGSGTDFTLTISRLEPQDFAVYYCQQYGSAPITFGQGTRLEIK | 0.962 nM | 1.21 nM | 2.2 mg/L | 4.81 mg/L
ADI-14445 (antibody, V domains shown, full-length IgG (yeast-expressed); also called Antibody Number 8; Ab# 8) VH: EVQLLESGAVMKRPGSSVRVSCRASGVTLTTVSVNWVRQVPGQGPEWIGGILIGFGKVRQAQKFENRVTLTADASRNTAYMELSGLTSDDTAVYYCAIIDPQDCTRASCFWVNWLDPWGQGTLVTVSS VL: DIRMTQSPGTLTLSPGERATLSCRASQSILSGNLAWYQQKPGQAPRLLISAASTRATDIPDRFSGSGSGTDFTLTITRLEPQDFAVYYCQQYDSAPITFGQGTRLEIK | 15.2 nM | 4.92 nM | 1.21 mg/L | > 10 mg/L
ADI-14512 (antibody, V domains shown, full-length IgG (yeast-expressed); also called Antibody Number 73; Ab# 73) VH: EVQLVESGAEVKKPGSSVKVSCKVVGGSFSNYGISWVRQAPGQGPEWMGGIIPAFKTAKYAKKFEDRVTITADESTSTAYMEVSGLRSDDTALYYCARPERDFGHLKWLRSPFDYWGQGTLVTVSS VL: ETTLTQSPATLSVSPGERVTLSCRASQGVSINLAWYQQKPGQAPRLLIYGASTRATDIPARFSGSGSGTDFTLTISSLQSEDFAVYYCQQYNDWPPQLTFGPGTKVEIK | 0.587 nM | 2.67 nM | > 10 mg/L | > 10 mg/L
ADI-14497 (antibody, V domains shown, full-length IgG (yeast-expressed); also called Antibody Number 58; Ab# 58) VH: QITLKESGPTLVKPTQTLTLTCTFSGFSLTTRGVGVGWIRQPPGKALEFLGFIHWDDDKTYSPSLRRRLTITKDTSNNEVVLTMTNMDPVDTATYYCVHSDLYDSGGYYLYYFDYWGQGTLVTVSS VL: EIVMTQSPSSLSASVGDRVTITCRASQPIPSYVNWYQQRPGKAPKLLIYAASNLQSGVSSKFSGRGFGTDFTLTIDTLQPEDFATYYCQQVYTSPYTFGQGTKLEIK | 4.82 nM | 0.358 nM | 0.116 mg/L | 0.115 mg/L
ADI-14506 (antibody, V domains shown, full-length IgG (yeast-expressed); also called Antibody Number 67; Ab# 67) VH: QVQLVQSGAEVKKPGSSVKVSCKVAGGSFSNYAIAWLRQAPGQGLEWMGGIIPAFNRAMYARKFQDRVTITAYASTTTAYLDITGLRSEDTALYYCARPAGDFGDLKWVRSPFDYWGQGTLITVSS VL: DIVMTQTPGTLSVSPGERATLSCRASQDVGINLAWYQQKPGQAPRLLIYGASTRATDVPAKFSGSGSGTDFTLTISSLQSEDFGVYYCQEYNDWPPQLSFGPGTKVDIK | 24.5 nM | 13.1 nM | 6.25 mg/L | > 10 mg/L
ADI-14511 (antibody, V domains shown, full-length IgG (yeast-expressed); also called Antibody Number 72; Ab# 72) VH: EVQLLESGAEVKKPGSSVKVSCKVAGGTFSDYAISWVRQAPGQGLEYLGGIIPAFKRAMYPRKFQDRVTITADESTSTAYMELRGLRSEDTALYYCARPAGDFGDLKWLRSPFDYWGQGTLVTVSS VL: DIVLTQSPATLSVSPGERATLSCRASEGVGINLAWYQQKPGQAPRLLIYGASTRATDIPARFSGSGSGTDFTLTISSLQSEDFAVYYCQQYNDWPPQLTFGPGTKVDIK | 1.25 nM | 0.988 nM | 7.04 mg/L | > 10 mg/L
